Experimental data published in the supplement of paper PMC9170038.

Test system: MS2 coat protein
Test: apparent KD of MS2 coat protein; higher = weaker reporter binding
Details: Eterna round: R107
Procedure, shortened: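 Designed RNA switches were transcribed on-chip from Illumina sequencing clusters. SNAP-549-labelled MS2 coat protein was titrated onto them in twofold steps from 0.7 or 1.5 nM to 3 µM in 100 mM Tris-HCl pH 7.5, 80 mM KCl, 4 mM MgCl2, either without or with constant ligand. Apparent KD reflects the per-design median of normalised cluster binding-curve fits.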

[1] = input ligand: theophylline 20 uM
[2] = input ligand: theophylline 2 mM
[3] = input ligand: tryptophan 2.4 mM

Sequence | apparent KD of MS2 coat protein (input ligand: arginine 13.2 mM) | apparent KD of MS2 coat protein (input ligand: none) | apparent KD of MS2 coat protein [1] | apparent KD of MS2 coat protein [2] | apparent KD of MS2 coat protein [3]
UAUACUAUGAAAGUAGUAUAUACGUGUUGACGAGGACCGGUACGGCCGCCACUCGACAUGAGGAUCACCCAUGUAUAGAAUAAGU [TrypA_F1] | 18.6 nM | 23.7 nM | 24.4 nM | 30 nM | 15.3 nM
UGUGCAGGAUGCGUAAAGGGUCUUGGGCAUCGAGGACCGGUACGGCCGCCACUCGGCUGUACAUGAGGAUCACCCAUGUCAGGGU [#1 Same State - Tryptophan A Attempt #20 (HarryS)] | 90.8 nM | 226 nM | 1060 nM | 393 nM | 271 nM
CGAUAUAAGACGGCCGCCACUAUUAAGUAUCAAAAUAAACAUGAGGAUCACCCAUGUACAUGGGAUAGGACCGGGUCCAAUAACG [A2] | 40.7 nM | 128 nM | 123 nM | 208 nM | 70.2 nM
UCUAGGCUCGGAAACGAGCCUAGUACAGAAGGAGCGUGGAUUAACACAGGUAGGUCGCUGACAUGAGGAUCACCCAUGUAUUAUU [SSAA #3] | 32.5 nM | 24.3 nM | 38 nM | 31 nM | 27.7 nM
UCGCGAGAGGGAAGGAGCGUCAGCUGAGUCACAUGAGGAUCACCCAUGUCGCACAUAGUGUGACAGGUAGGUCGCCCUCCGCCCU [Leinticees] | 99.6 nM | 134 nM | 248 nM | 192 nM | 157 nM
UGGUACAUGAGGAUCACCCAUGUUCCAGAUACCAGCGUCCCGGUGCGCCCUUGGCAGCUGGUGGUACAUGAGGAUCACCCAUGUG [Exclusion Theophylline A GF14] | 35.2 nM | 40.2 nM | 50 nM | 61.2 nM | 44.9 nM
UUAGAUAUGACAGAUACCAGCGUGUUGUAGAACAUGAGGAUCACCCAUGUAGUGAUCGUGCGCCCUUGGCAGCUGGUAUGUUUGG [7.W] | 148 nM | – | 341 nM | – | 788 nM
GCCGGACUUUCGGCCGCCACUGAGAGAGUCGUGUGAACAUGAGGAUCACCCAUGUAAUAUAUAUACAGGACCGGGAGGGUUGGGC [4.R] | 10.5 nM | 13.7 nM | 15.1 nM | 14.4 nM | 12.4 nM
UAUCCACAUGAGGAUCACCCAUGUAAGGAAGGAGCGGUGAAUGCACCAGGUAGGUCGCCUUGCUGAGGACUGUCGGUGGAUUCGU [Exclusion - Arginine A (Freestyle 22)] | 26.8 nM | 32.8 nM | 43.2 nM | 39.5 nM | 32 nM
AAGGGAGAAUCAGAUACCAGAGUAAGAUGGCAUGAUAAUUACAUGAGGAUCACCCAUGUACUCCCUUGGCAGCUGACAAUAUAUU [Exclusion Theophylline B GF 18] | 12.5 nM | – | 13.2 nM | – | 10.3 nM
UGGCAAGAGGGAAGGAGCGUCAGCUGAGUCACAUGAGGAUCACCCAUGUAGCACAUGGUGUGACAGGUAGGUCGCCCUCUGCCGU [SS-ArgB11] | 34.4 nM | 21.5 nM | 36.6 nM | 28.8 nM | 23.7 nM
AUAUGAUCAUGGGAUACCAGAAAUGGUAUUCCUUUAUUUCUUACAUGAGGAUCACCCAUGUUCCCUUGGCAGCUUAUGAUCAUAU [ETHB #5] | 53.7 nM | – | 85.8 nM | – | 67.9 nM
UGUCAUGGAAACAUGACUGGUUCUACCGGUCGAGGACCGGUACGGCCGCCACUCGAUUGGUGGCACAUGAGGAUCACCCAUGUUA [SS Tryp A #14] | 26.2 nM | – | 51.9 nM | 33.9 nM | –
GAUUAAACAUGAGGAUCACCCAUGUAUAUACGAGGACCGGUACGGCCGCCACUCGAAAACGAGUAUCCUCGAAUAAACAUGAUAA [AK 2 SS Trypt (A)] | 27.7 nM | – | 48.3 nM | 52.8 nM | –
ACGGACAUGAGGAUCACCCAUGUGGCCGAAGGAGCGGGAAUUAACCCAGGUAGGUCGCGGAAAUUUUUUAAAUUAUUUUAAUUUU [Same State - Arginine A] | 14.4 nM | 17.1 nM | 21.5 nM | 18.7 nM | 17.3 nM
GGGCCCGGGCGCGAGCCCGGGCCCAUUGAUACCAGUGAUAUAUAACGCCCUUGGCAGCGAAUCCUAACAUGAGGAUCACCCAUGU [5.G] | 35.2 nM | 46.3 nM | 61.5 nM | 71.8 nM | 37 nM
AUAACAUGAGGAUCACCCAUGUAAGCAGAUACCAGCUAGGAAACUAGCCCUUGGCAGCUGCAAUCAUGGGUGUGGUAUCUGCUAA [(M1)-(M2)-(T1)-(T2)-(M)'-(T)'_Design5] | 21.5 nM | – | 39.7 nM | – | 16.4 nM
UGGUACUAGGCGGCCGCCACUGGGUGAUACAUGAGGAUCACCCAUGUUUAAUGCCGAGAGGCAACUAGGACCGGGCCUAGUACAU | 101 nM | – | 339 nM | 586 nM | –
UCGUGUGUUUCGGAUACCAGUGUGGUCGAUACAUGAGGAUCACCCAUGUGAGAGGAGGUACACCCUUGGCAGCUGGCUGUUGCGG [qqwmullin] | 39.7 nM | – | 82 nM | – | 77.5 nM
UCGUUUUAGUCGGCCGCCACUGUAUGCAUGUUUAACAUGAGGAUCACCCAUGUCCCGUACUAUAACAGGACCGGGACGUAAUAGA [JR_SSTryptoB_Sub006] | 112 nM | – | 207 nM | 936 nM | –

Sequence | apparent KD of MS2 coat protein (input ligand: arginine 13.2 mM) | apparent KD of MS2 coat protein (input ligand: none) | apparent KD of MS2 coat protein [1] | apparent KD of MS2 coat protein [2] | apparent KD of MS2 coat protein [3]
UGACAUUGCUCAGAUACCAGACAUGAGGAUCACCCAUGUGCCAAAACGUACUAAAUAAAUGUCCCUUGGCAGCUGAGCAAUGUCU [TheoBX 13 #MS2Left #Theo2] | 13.5 nM | – | 14.4 nM | – | 12.9 nM
UACAUGAGGAUCACCCAUGUAUGUAUCGAAGGAGCGCGUGUAAACGCAGGUAGGUCGCGAACAUGAGGAUCACACAUGAGGAUCA [Same State Arginine A] | 20.9 nM | – | 31.1 nM | 37.5 nM | 29.3 nM
ACGCUGAUUGAUUACAAUCAGCGAAAAGAUACCAGUGGGUAAUCCCACCCUUGGCAGCUUAAAUCUGAGGAUCACCCAGGUGGUA [TheoAS 19 #MS2Right #BothOrNeither #AlternativeMS2] | 153 nM | 253 nM | 382 nM | 376 nM | 728 nM
GGCUGACAUGAGGAUCACCCAUGUAGUGAUACCAGUAAGAGAAUAUACCCUUGGCAGCACAGGUAACAACUCGUCUCCAAAGUAA [theeternabot_sameState_MS2_Theo_A_49] | 53.7 nM | – | 55.6 nM | – | 38.2 nM
GGAAACCCGACGGCCGCCACUAACGGUCUCAAAAGAGGUUGAACACAUGAGGAUCACCCAUGUAAUAGGACCGGGUCGUGUGAAA [Design 1] | 17.9 nM | – | 24.9 nM | 19.4 nM | –
GUCCACAGCCGAAGGAGCGCUAGAAGAUGACAUGAGGAUCACCCAUGUGUGUGAUGUGGCUAGCAGGUAGGUCGCGGAGUGGAUU [Exclusion - Arginine B (Freestyle 14)] | 20.5 nM | 21.7 nM | 30.3 nM | 24.8 nM | 19.6 nM
GUCAGUAGAACAGAUACCAGUCAAAGGCUGUGAUCUCAUAACAUGAGGAUCACCCAUGUUGACCCUUGGCAGCUGUGGGCGAGGG [#20 Exclusion-TheophyllineB] | 26 nM | – | 77.8 nM | – | 43.7 nM
GCGAACGGACCGUUGCCUUCCUGUGUGCGGCGAGGACCGGUACGGCCGCCACUCGACUGCGUACAUGAGGAUCACCCAUGUUAGA [theeternabot_exclusion_MS2_Trp_A_16] | 41.2 nM | – | 40.2 nM | 31.8 nM | –
AGCCCGGGAGCGGCCGCCACUGGAGGCUUAGCGCGACAUGAGGAUCACCCAUGUGUGCCCGGCGUUAGGACCGGGCUCGCGUGGU [#1 Same State - Tryptophan B Attempt #22 (HarryS)] | 15.3 nM | 31.2 nM | 52.7 nM | 46.1 nM | 35.2 nM
GGCGCGGUGAUGGUAGCCGGACGCUAGGUACGAGGACCGGUACGGCCGCCACUCGGAGUCCUGGGACAUGAGGAUCACCCAUGUA [Same State Trp A GF18] | 78.9 nM | 161 nM | 118 nM | 209 nM | 63.4 nM
AAAUAAAUACAUGAGGAUCACCCAUGUGAAGGAGCGGCCGUUAGGCCAGGUAGGUCGCACAUGAAAGGGAAGCGAAAGAAAUAAU [MAT - Exclusion Arginine A - Mod of Eli - D7] | 12.2 nM | 18.1 nM | 25.9 nM | 19 nM | 19.2 nM
AUAAUAAAGUCGGCCGCCACUAUAAACAUGAGGAACAUGAGGAUCACCCAUGUAUGAGGAUCACCUAGGACCGGGACAAAUAUUA [AstrosExyTryB#3] | 47.3 nM | 57.3 nM | 88.3 nM | 63.1 nM | 54.7 nM
AUACAUGAGGAUCACCCAUGUUACACUGAAGGAGCGACAUGUUUGUCAGGUAGGUCGCAGUGAAGUUUAAUAAUUCUUUGAUCUU [#06 Same State - Arginine A] | 22.4 nM | 24 nM | 36.4 nM | 26.5 nM | 23.7 nM
UCGCUCUGGGUGAGAUCCGGAGAUGUGGAAGGAGCGCUGGUUCCAGCAGGUAGGUCGCCAACGGACAUGAGGAUCACCCAUGUAC [Same State - Arginine A (Freestyle 13)] | 39.2 nM | 51.7 nM | 63.1 nM | 70.4 nM | 45.9 nM
UGGCAAGAGGGAAGGAGCGUCAGCAGAGUCACAUGAGGAUCACCCAUGUAGCACGUGGUGUGACAGGUAGGUCGCCCUCUGCCGU [SS-ArgB12] | 24.3 nM | 15.1 nM | 30.7 nM | 21.8 nM | 22.1 nM
ACCUGUACGAAAAGUGCAGGACAUGGUAAACGAGGACCGGUACGGCCGCCACUCGAAGAAAACAAGUGGAUCACCCUUGUCCAUG [TrypAS 4 #AlternativeMS2 #Zipper #StaticStem] | 292 nM | 622 nM | 641 nM | 2090 nM | 1350 nM
UCGGACAUGAGGAUCACCCAUGUAAAUCCUCGAGGACCGGUACGGCCGCCACUCGAACGAGUGGCGCGCGAGCGCGCGCUCGCGC [aGa] | 20.4 nM | 43.8 nM | 67.7 nM | 62.5 nM | 36.9 nM
UUCUACAUGAGGAUCACCCAUGUGGGUGAUACCAGCACUUUUUGGUGCCCUUGGCAGCACAUGAGAAUACCGUACGAUCGGUGAU [Isbiti] | 103 nM | – | 559 nM | – | 508 nM
AGUAUCAGUGGAAGGAGCGUCGCGACUGCUACAUGAGGAUCACCCAUGUCGCCUUGAGCGCGACAGGUAGGUCGCCACGGUAGGC [SS-ArgB1] | 28.6 nM | 49.6 nM | 68.8 nM | 72.1 nM | 40.3 nM
